# pKd: −log10 of the molar value.
# Tests used:
# [1] = molecular target: IL-1RAcP-ECD D30A (mouse) (UniProt Q61730); test: SPR; equilibrium; Biacore T200, 25 °C, 10 mM Hepes (pH 7.9), 150 mM NaCl, 0.05% Tween-20; IL-1RAcP-ECD-Fc captured (about 700 RU) by anti-Fc antibodies immobilised on a CM5 chip; PTPδ Ig1–Fn1 variants or mutants injected as analytes, 15.6 to 4,000 nM
# [2] = molecular target: IL-1RAcP-ECD K94A (mouse) (UniProt Q61730); test: as above
# [3] = molecular target: IL-1RAcP-ECD W27A (mouse) (UniProt Q61730); test: as above
# [4] = molecular target: IL-1RAcP-ECD-Fc, wild type (mouse) (UniProt Q61730); test: as above
# [5] = molecular target: IL1RAPL1-ECD-His6, wild type (mouse) (UniProt P59823); test: SPR; equilibrium; Biacore T200, 25 °C, 10 mM Hepes (pH 7.9), 150 mM NaCl, 0.05% Tween-20; IL1RAPL1-ECD-His6 amine-coupled on a CM5 chip (about 2,000 RU); PTPδ Ig1–Fn1 variants or mutants injected as analytes, 15.6 to 4,000 nM
# [6] = molecular target: IL1RAPL1-ECD D37A (mouse) (UniProt P59823); test: as above
# [7] = molecular target: IL1RAPL1-ECD D292A (mouse) (UniProt P59823); test: as above
# [8] = molecular target: IL1RAPL1-ECD M75A/Y77A/P88A/F91A (mouse) (UniProt P59823); test: as above
# [9] = molecular target: IL-1RAcP-ECD (His6-tagged, for crystallography) (mouse) (UniProt Q61730); test: crystal structure; sitting drop vapour diffusion at 20 °C; the two proteins mixed at a molar ratio of 1:1 to about 6 g/l before crystallisation
# [10] = molecular target: IL1RAPL1-ECD-His6, wild type (mouse) (UniProt P59823); test: as above
# IL1RAPL1-ECD-His6, wild type (mouse), sequence (P59823 19-352): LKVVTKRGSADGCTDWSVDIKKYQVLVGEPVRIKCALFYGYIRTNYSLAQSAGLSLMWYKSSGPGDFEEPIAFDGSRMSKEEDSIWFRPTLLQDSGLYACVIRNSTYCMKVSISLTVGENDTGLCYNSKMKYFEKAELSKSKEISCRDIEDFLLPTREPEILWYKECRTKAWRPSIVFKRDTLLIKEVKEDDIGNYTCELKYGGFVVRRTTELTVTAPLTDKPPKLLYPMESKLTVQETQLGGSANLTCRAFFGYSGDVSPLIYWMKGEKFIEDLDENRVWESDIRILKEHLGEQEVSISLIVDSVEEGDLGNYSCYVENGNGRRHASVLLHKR
# IL1RAPL1-ECD M75A/Y77A/P88A/F91A (mouse), sequence (P59823 19-352 M75A/Y77A/P88A/F91A): as the sequence (P59823 19-352) above, with M57A, Y59A, P70A, F73A counted along it
# IL-1RAcP-ECD-Fc, wild type (mouse), sequence (Q61730 21-367): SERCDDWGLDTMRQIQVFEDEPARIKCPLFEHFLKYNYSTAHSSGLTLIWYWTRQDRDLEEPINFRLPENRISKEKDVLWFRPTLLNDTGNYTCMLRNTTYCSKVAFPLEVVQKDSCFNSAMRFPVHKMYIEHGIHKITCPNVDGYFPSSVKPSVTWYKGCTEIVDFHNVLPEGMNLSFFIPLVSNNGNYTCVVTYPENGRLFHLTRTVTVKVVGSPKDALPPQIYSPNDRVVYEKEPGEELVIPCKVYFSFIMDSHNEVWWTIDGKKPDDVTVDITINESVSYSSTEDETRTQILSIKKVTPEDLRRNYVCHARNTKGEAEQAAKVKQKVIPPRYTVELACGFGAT
# IL-1RAcP-ECD (His6-tagged, for crystallography) (mouse), sequence (Q61730 21-351): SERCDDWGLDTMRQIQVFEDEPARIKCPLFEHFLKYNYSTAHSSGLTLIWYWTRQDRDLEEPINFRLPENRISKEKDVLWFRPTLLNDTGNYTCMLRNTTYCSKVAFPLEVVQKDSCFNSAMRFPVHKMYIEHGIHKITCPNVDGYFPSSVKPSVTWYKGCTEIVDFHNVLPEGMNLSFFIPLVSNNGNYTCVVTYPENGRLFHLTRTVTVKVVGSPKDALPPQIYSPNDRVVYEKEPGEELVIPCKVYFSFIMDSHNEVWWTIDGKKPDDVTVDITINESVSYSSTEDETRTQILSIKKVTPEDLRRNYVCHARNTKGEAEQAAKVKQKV
# IL-1RAcP-ECD K94A (mouse), sequence (Q61730 21-367 K94A): as the sequence (Q61730 21-367) above, with K74A counted along it
# IL-1RAcP-ECD W27A (mouse), sequence (Q61730 21-367 W27A): as the sequence (Q61730 21-367) above, with W7A counted along it
# IL1RAPL1-ECD D292A (mouse), sequence (P59823 19-352 D292A): as the sequence (P59823 19-352) above, with D274A counted along it
# IL-1RAcP-ECD D30A (mouse), sequence (Q61730 21-367 D30A): as the sequence (Q61730 21-367) above, with D10A counted along it
# IL1RAPL1-ECD D37A (mouse), sequence (P59823 19-352 D37A): as the sequence (P59823 19-352) above, with D19A counted along it
substance,measurement,setting,value
"PTPδ Ig1–Fn1 (isoform containing meA9 and meB), wild type (domain or fragment)",pKd,[1],6.21
same,pKd,[2],5.09
same,pKd,[3],5.34
same,pKd,[4],6.17
same,pKd,[5],6.82
same,pKd,[6],5.62
same,pKd,[7],5.66
same,pKd,[8],5.55
PTPδ Ig1–Fn2 (domain or fragment),stoichiometry N,[9],1
PTPδ-ECD (full-length extracellular domain) (domain or fragment),stoichiometry N,[10],1

# Reference: PMC4423211 (2015)
